B1: Keratin, type I cytoskeletal 20 (Homo sapiens), P35900 (parent)
chain: MDFSRRSFHRSLSSSLQAPVVSTVGMQRLGTTPSVYGGAGGRGIRISNSRHTVNYGSDLTGGGDLFVGNEKMAMQNLNDRLASYLEKVRTLEQSNSKLEVQIKQWYETNAPRAGRDYSAYYRQIEELRSQIKDAQLQNARCVLQIDNAKLAAEDFRLKYETERGIRLTVEADLQGLNKVFDDLTLHKTDLEIQIEELNKDLALLKKEHQEEVDGLHKHLGNTVNVEVDAAPGLNLGVIMNEMRQKYEVMAQKNLQEAKEQFERQTAVLQQQVTVNTEELKGTEVQLTELRRTSQSLEIELQSHLSMKESLEHTLEETKARYSSQLANLQSLLSSLEAQLMQIRSNMERQNNEYHILLDIKTRLEQEIATYRRLLEGEDVKTTEYQLSTLEERDIKKTRKIKTVVQEVVDGKVVSSEVKEVEENI
B2: WW domain-containing adapter protein with coiled-coil (Homo sapiens), Q9BTA9-1 (parent)
chain: MVMYARKQQRLSDGCHDRRGDSQPYQALKYSSKSHPSSGDHRHEKMRDAGDPSPPNKMLRRSDSPENKYSDSTGHSKAKNVHTHRVRERDGGTSYSPQENSHNHSALHSSNSHSSNPSNNPSKTSDAPYDSADDWSEHISSSGKKYYYNCRTEVSQWEKPKEWLEREQRQKEANKMAVNSFPKDRDYRREVMQATATSGFASGMEDKHSSDASSLLPQNILSQTSRHNDRDYRLPRAETHSSSTPVQHPIKPVVHPTATPSTVPSSPFTLQSDHQPKKSFDANGASTLSKLPTPTSSVPAQKTERKESTSGDKPVSHSCTTPSTSSASGLNPTSAPPTSASAVPVSPVPQSPIPPLLQDPNLLRQLLPALQATLQLNNSNVDISKINEVLTAAVTQASLQSIIHKFLTAGPSAFNITSLISQAAQLSTQAQPSNQSPMSLTSDASSPRSYVSPRISTPQTNTVPIKPLISTPPVSSQPKVSTPVVKQGPVSQSATQQPVTADKQQGHEPVSPRSLQRSSSQRSPSPGPNHTSNSSNASNATVVPQNSSARSTCSLTPALAAHFSENLIKHVQGWPADHAEKQASRLREEAHNMGTIHMSEICTELKNLRSLVRVCEIQATLREQRILFLRQQIKELEKLKNQNSFMV

Variants of: B1
Conditions: with KRT15, P19012
Target sequence in this assay (P19012 whole entry): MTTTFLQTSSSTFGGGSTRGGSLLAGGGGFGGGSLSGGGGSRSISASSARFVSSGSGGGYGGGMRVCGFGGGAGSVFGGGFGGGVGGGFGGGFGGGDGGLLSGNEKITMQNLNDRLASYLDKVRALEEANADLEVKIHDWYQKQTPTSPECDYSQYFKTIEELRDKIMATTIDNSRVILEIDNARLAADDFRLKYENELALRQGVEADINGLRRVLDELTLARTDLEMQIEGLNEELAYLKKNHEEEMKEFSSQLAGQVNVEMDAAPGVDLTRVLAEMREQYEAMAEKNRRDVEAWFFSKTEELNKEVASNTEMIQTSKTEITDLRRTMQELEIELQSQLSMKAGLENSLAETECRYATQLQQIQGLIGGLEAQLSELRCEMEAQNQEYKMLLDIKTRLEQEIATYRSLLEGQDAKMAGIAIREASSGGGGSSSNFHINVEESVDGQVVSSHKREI

Row | Variant | effect of a mutation on the interaction
1 | MDFSRRSFHRSLSSSLQAPVVSTVGMQRLGTTPSVYGGAGGRGIRISNSRHTVNYGSDLTGGGDLFVGNEKMAMQNLNDRLASYLEKVRTLEQSNSKLEVQIKQWYETNAPRAGRDYSAYYRQIEELRNQIKDAQLQNARCVLQIDNAKLAAEDFRLKYETERGIRLTVEADLQGLNKVFDDLTLHKTDLEIQIEELNKDLALLKKEHQEEVDGLHKHLGNTVNVEVDAAPGLNLGVIMNEMRQKYEVMAQKNLQEAKEQFERQTAVLQQQVTVNTEELKGTEVQLTELRRTSQSLEIELQSHLSMKESLEHTLEETKARYSSQLANLQSLLSSLEAQLMQIRSNMERQNNEYHILLDIKTRLEQEIATYRRLLEGEDVKTTEYQLSTLEERDIKKTRKIKTVVQEVVDGKVVSSEVKEVEENI [S129N] | with no effect
2 | MDFSRRSFHRSLSSSLQAPVVSTVGMQRLGTTPSVYGGAGGRGIRISNSRHTVNYGSDLTGGGDLFVGNEKMAMQNLNDRLASYLEKVRTLEQSNSKLEVQIKQWYETNAPRAGRDYSAYYRQIEELRSQIKDAQLQNARCVLQIDNAKLAAEDFRLKYETERGIRLTVEADLQGLNKVFDDLTLHKTDLEIQIEELNKDLALLKKEHQEEVDGLHKHLGNTVNVEVDAAPGLNLGVIMNEMRQKYEVMAQKNLQEAKEQFERQTAVLQQQVTVNTEELKGTEVQLTELRRTSQSLEIELQSHLSMKEYLEHTLEETKARYSSQLANLQSLLSSLEAQLMQIRSNMERQNNEYHILLDIKTRLEQEIATYRRLLEGEDVKTTEYQLSTLEERDIKKTRKIKTVVQEVVDGKVVSSEVKEVEENI [S309Y] | with no effect

Variants of: B1
Conditions: with vime_human VIM

Row | Variant | effect of a mutation on the interaction
3 | MDFSRRSFHRSLSSSLQAPVVSTVGMQRLGTTPSVYGGAGGRGIRISNSRHTVNYGSDLTGGGDLFVGNEKMAMQNLNDRLASYLEKVRTLEQSNSKLEVQIKQWYETNAPRAGRDYSAYYRQIEELRNQIKDAQLQNARCVLQIDNAKLAAEDFRLKYETERGIRLTVEADLQGLNKVFDDLTLHKTDLEIQIEELNKDLALLKKEHQEEVDGLHKHLGNTVNVEVDAAPGLNLGVIMNEMRQKYEVMAQKNLQEAKEQFERQTAVLQQQVTVNTEELKGTEVQLTELRRTSQSLEIELQSHLSMKESLEHTLEETKARYSSQLANLQSLLSSLEAQLMQIRSNMERQNNEYHILLDIKTRLEQEIATYRRLLEGEDVKTTEYQLSTLEERDIKKTRKIKTVVQEVVDGKVVSSEVKEVEENI [S129N] | with no effect
4 | MDFSRRSFHRSLSSSLQAPVVSTVGMQRLGTTPSVYGGAGGRGIRISNSRHTVNYGSDLTGGGDLFVGNEKMAMQNLNDRLASYLEKVRTLEQSNSKLEVQIKQWYETNAPRAGRDYSAYYRQIEELRSQIKDAQLQNARCVLQIDNAKLAAEDFRLKYETERGIRLTVEADLQGLNKVFDDLTLHKTDLEIQIEELNKDLALLKKEHQEEVDGLHKHLGNTVNVEVDAAPGLNLGVIMNEMRQKYEVMAQKNLQEAKEQFERQTAVLQQQVTVNTEELKGTEVQLTELRRTSQSLEIELQSHLSMKEYLEHTLEETKARYSSQLANLQSLLSSLEAQLMQIRSNMERQNNEYHILLDIKTRLEQEIATYRRLLEGEDVKTTEYQLSTLEERDIKKTRKIKTVVQEVVDGKVVSSEVKEVEENI [S309Y] | with no effect

Variants of: B2
Conditions: with KRT15, P19012
Target sequence in this assay (P19012 whole entry): as the sequence (P19012 whole entry) above

Row | Variant | effect of a mutation on the interaction
5 | S475L | with no effect

Variants of: B2
Conditions: with nf2l2_human NFE2L2, Q16236
Chain of nf2l2_human NFE2L2, Q16236 (Q16236 whole entry): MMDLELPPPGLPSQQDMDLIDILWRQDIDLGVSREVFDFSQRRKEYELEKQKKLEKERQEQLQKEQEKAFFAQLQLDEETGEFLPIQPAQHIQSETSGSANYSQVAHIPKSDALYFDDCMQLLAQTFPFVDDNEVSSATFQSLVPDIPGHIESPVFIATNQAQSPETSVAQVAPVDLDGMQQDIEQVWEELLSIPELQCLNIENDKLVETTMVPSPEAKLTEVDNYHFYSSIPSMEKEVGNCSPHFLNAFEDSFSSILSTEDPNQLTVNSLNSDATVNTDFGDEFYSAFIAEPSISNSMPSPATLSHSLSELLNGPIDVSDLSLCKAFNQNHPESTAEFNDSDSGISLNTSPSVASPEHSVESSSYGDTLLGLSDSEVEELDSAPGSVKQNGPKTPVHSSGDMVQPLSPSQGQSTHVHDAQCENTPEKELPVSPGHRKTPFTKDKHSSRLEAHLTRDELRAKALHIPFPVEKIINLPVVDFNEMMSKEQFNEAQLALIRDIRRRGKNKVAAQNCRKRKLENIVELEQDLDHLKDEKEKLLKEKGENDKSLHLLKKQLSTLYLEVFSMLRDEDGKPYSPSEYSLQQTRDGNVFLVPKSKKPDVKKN

Row | Variant | effect of a mutation on the interaction
6 | S475L | with no effect

Variants of: B2
Conditions: with mtus2_human MTUS2, Q5JR59
Chain of mtus2_human MTUS2, Q5JR59 (Q5JR59 whole entry): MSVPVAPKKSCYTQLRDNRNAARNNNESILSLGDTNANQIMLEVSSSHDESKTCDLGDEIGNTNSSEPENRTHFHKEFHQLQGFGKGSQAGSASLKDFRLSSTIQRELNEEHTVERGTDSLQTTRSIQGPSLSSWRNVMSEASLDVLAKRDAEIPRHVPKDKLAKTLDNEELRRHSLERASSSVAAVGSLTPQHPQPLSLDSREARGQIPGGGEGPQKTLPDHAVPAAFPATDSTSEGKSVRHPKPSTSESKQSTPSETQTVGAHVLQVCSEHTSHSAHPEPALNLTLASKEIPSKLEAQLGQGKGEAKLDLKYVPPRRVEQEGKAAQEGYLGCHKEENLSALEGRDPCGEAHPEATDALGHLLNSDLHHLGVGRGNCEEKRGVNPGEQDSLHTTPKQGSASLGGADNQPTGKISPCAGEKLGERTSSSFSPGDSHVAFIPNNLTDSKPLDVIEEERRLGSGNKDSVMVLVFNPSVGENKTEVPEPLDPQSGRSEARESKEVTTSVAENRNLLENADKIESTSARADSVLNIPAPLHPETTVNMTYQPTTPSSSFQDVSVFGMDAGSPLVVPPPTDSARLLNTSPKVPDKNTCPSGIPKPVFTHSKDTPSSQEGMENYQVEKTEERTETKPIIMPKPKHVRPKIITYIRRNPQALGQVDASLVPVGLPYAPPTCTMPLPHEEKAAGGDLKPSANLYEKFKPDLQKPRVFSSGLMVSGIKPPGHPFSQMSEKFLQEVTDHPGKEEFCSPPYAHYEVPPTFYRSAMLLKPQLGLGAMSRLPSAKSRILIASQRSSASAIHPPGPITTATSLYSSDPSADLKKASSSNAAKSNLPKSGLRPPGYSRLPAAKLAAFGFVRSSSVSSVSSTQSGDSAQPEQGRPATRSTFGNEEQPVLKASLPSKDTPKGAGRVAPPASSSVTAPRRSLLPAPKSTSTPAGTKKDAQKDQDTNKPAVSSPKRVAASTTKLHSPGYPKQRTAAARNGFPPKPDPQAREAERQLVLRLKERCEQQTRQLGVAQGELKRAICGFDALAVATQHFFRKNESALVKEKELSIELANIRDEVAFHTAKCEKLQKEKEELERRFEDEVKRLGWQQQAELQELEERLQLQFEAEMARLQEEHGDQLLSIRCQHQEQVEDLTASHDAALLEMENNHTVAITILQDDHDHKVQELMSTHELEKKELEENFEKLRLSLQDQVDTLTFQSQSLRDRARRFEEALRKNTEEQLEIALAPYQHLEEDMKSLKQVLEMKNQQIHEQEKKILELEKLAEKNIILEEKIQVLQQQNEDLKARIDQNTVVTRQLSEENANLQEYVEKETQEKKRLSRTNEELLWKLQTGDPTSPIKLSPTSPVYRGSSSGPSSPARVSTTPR

Row | Variant | effect of a mutation on the interaction
7 | S475L | with no effect
